From patent US20130210709A1 (ANCHOR THERAPEUTICS, published 2013)
Ends that are not written are not given here. * marks the point of attachment. Palmitoyl = CCCCCCCCCCCCCCCC(=O)*; NHhexadecyl = CCCCCCCCCCCCCCCCN*

B1: CXCR4 i1 loop compound 69 (peptide)
peptide: Palmitoyl-SGYQKKLRSSTD-NH2
SMILES: CCCCCCCCCCCCCCCC(=O)N[C@@H](CO)C(=O)NCC(=O)N[C@@H](Cc1ccc(O)cc1)C(=O)N[C@@H](CCC(N)=O)C(=O)N[C@@H](CCCCN)C(=O)N[C@@H](CCCCN)C(=O)N[C@@H](CC(C)C)C(=O)N[C@@H](CCCNC(=N)N)C(=O)N[C@@H](CO)C(=O)N[C@@H](CO)C(=O)N[C@H](C(=O)N[C@@H](CC(=O)O)C(N)=O)[C@@H](C)O
B2: CXCR4 i1 loop compound 55 (peptide)
peptide: Palmitoyl-MGYQKKLRSMTDKYRLHLSV-NH2
SMILES: CCCCCCCCCCCCCCCC(=O)N[C@@H](CCSC)C(=O)NCC(=O)N[C@@H](Cc1ccc(O)cc1)C(=O)N[C@@H](CCC(N)=O)C(=O)N[C@@H](CCCCN)C(=O)N[C@@H](CCCCN)C(=O)N[C@@H](CC(C)C)C(=O)N[C@@H](CCCNC(=N)N)C(=O)N[C@@H](CO)C(=O)N[C@@H](CCSC)C(=O)N[C@H](C(=O)N[C@@H](CC(=O)O)C(=O)N[C@@H](CCCCN)C(=O)N[C@@H](Cc1ccc(O)cc1)C(=O)N[C@@H](CCCNC(=N)N)C(=O)N[C@@H](CC(C)C)C(=O)N[C@@H](Cc1c[nH]cn1)C(=O)N[C@@H](CC(C)C)C(=O)N[C@@H](CO)C(=O)N[C@H](C(N)=O)C(C)C)[C@@H](C)O
B3: CXCR4 i1 loop compound 39 (peptide)
peptide: Palmitoyl-MGYQKKLRSMTDKYRLHL-NH2
SMILES: CCCCCCCCCCCCCCCC(=O)N[C@@H](CCSC)C(=O)NCC(=O)N[C@@H](Cc1ccc(O)cc1)C(=O)N[C@@H](CCC(N)=O)C(=O)N[C@@H](CCCCN)C(=O)N[C@@H](CCCCN)C(=O)N[C@@H](CC(C)C)C(=O)N[C@@H](CCCNC(=N)N)C(=O)N[C@@H](CO)C(=O)N[C@@H](CCSC)C(=O)N[C@H](C(=O)N[C@@H](CC(=O)O)C(=O)N[C@@H](CCCCN)C(=O)N[C@@H](Cc1ccc(O)cc1)C(=O)N[C@@H](CCCNC(=N)N)C(=O)N[C@@H](CC(C)C)C(=O)N[C@@H](Cc1c[nH]cn1)C(=O)N[C@@H](CC(C)C)C(N)=O)[C@@H](C)O
B4: CXCR4 i1 loop compound 54 (peptide)
peptide: MGYQKKLRSMTDKYRLHL-NH2
modifications: not fully specified (N-terminus); also: N-terminal T-L: Myr, dual lipid backbone
B5: CXCR4 i1 loop compound 49 (peptide)
peptide: Palmitoyl-MGYQKKLRSMTDKYRI-NH2
SMILES: CCCCCCCCCCCCCCCC(=O)N[C@@H](CCSC)C(=O)NCC(=O)N[C@@H](Cc1ccc(O)cc1)C(=O)N[C@@H](CCC(N)=O)C(=O)N[C@@H](CCCCN)C(=O)N[C@@H](CCCCN)C(=O)N[C@@H](CC(C)C)C(=O)N[C@@H](CCCNC(=N)N)C(=O)N[C@@H](CO)C(=O)N[C@@H](CCSC)C(=O)N[C@H](C(=O)N[C@@H](CC(=O)O)C(=O)N[C@@H](CCCCN)C(=O)N[C@@H](Cc1ccc(O)cc1)C(=O)N[C@@H](CCCNC(=N)N)C(=O)N[C@H](C(N)=O)[C@@H](C)CC)[C@@H](C)O
B6: CXCR4 i1 loop compound 46 (peptide)
peptide: Palmitoyl-KKLRSMTDKY-NH2
SMILES: CCCCCCCCCCCCCCCC(=O)N[C@@H](CCCCN)C(=O)N[C@@H](CCCCN)C(=O)N[C@@H](CC(C)C)C(=O)N[C@@H](CCCNC(=N)N)C(=O)N[C@@H](CO)C(=O)N[C@@H](CCSC)C(=O)N[C@H](C(=O)N[C@@H](CC(=O)O)C(=O)N[C@@H](CCCCN)C(=O)N[C@@H](Cc1ccc(O)cc1)C(N)=O)[C@@H](C)O
B7: Compound No. 44 (Pal-KKLRSMTDKYRL-amide) (peptide)
peptide: Palmitoyl-KKLRSMTDKYRL-NH2
SMILES: CCCCCCCCCCCCCCCC(=O)N[C@@H](CCCCN)C(=O)N[C@@H](CCCCN)C(=O)N[C@@H](CC(C)C)C(=O)N[C@@H](CCCNC(=N)N)C(=O)N[C@@H](CO)C(=O)N[C@@H](CCSC)C(=O)N[C@H](C(=O)N[C@@H](CC(=O)O)C(=O)N[C@@H](CCCCN)C(=O)N[C@@H](Cc1ccc(O)cc1)C(=O)N[C@@H](CCCNC(=N)N)C(=O)N[C@@H](CC(C)C)C(N)=O)[C@@H](C)O
B8: CXCR4 i1 loop compound 37 (peptide)
peptide: Palmitoyl-MGYQKKLRSMTDKY-NH2
SMILES: CCCCCCCCCCCCCCCC(=O)N[C@@H](CCSC)C(=O)NCC(=O)N[C@@H](Cc1ccc(O)cc1)C(=O)N[C@@H](CCC(N)=O)C(=O)N[C@@H](CCCCN)C(=O)N[C@@H](CCCCN)C(=O)N[C@@H](CC(C)C)C(=O)N[C@@H](CCCNC(=N)N)C(=O)N[C@@H](CO)C(=O)N[C@@H](CCSC)C(=O)N[C@H](C(=O)N[C@@H](CC(=O)O)C(=O)N[C@@H](CCCCN)C(=O)N[C@@H](Cc1ccc(O)cc1)C(N)=O)[C@@H](C)O
B9: CXCR4 i1 loop compound 59 (peptide)
peptide: Ac-MGYQKKLRSMTDK-NHhexadecyl
SMILES: CCCCCCCCCCCCCCCCNC(=O)[C@H](CCCCN)NC(=O)[C@H](CC(=O)O)NC(=O)[C@@H](NC(=O)[C@H](CCSC)NC(=O)[C@H](CO)NC(=O)[C@H](CCCNC(=N)N)NC(=O)[C@H](CC(C)C)NC(=O)[C@H](CCCCN)NC(=O)[C@H](CCCCN)NC(=O)[C@H](CCC(N)=O)NC(=O)[C@H](Cc1ccc(O)cc1)NC(=O)CNC(=O)[C@H](CCSC)NC(C)=O)[C@@H](C)O
B10: CXCR4 i1 loop compound 45 (peptide)
peptide: Palmitoyl-KKLRSMTDKYR-NH2
SMILES: CCCCCCCCCCCCCCCC(=O)N[C@@H](CCCCN)C(=O)N[C@@H](CCCCN)C(=O)N[C@@H](CC(C)C)C(=O)N[C@@H](CCCNC(=N)N)C(=O)N[C@@H](CO)C(=O)N[C@@H](CCSC)C(=O)N[C@H](C(=O)N[C@@H](CC(=O)O)C(=O)N[C@@H](CCCCN)C(=O)N[C@@H](Cc1ccc(O)cc1)C(=O)N[C@@H](CCCNC(=N)N)C(N)=O)[C@@H](C)O
B11: CXCR4 i1 loop compound 35 (peptide)
peptide: Palmitoyl-VMGYQKKLRSMTD-NH2
SMILES: CCCCCCCCCCCCCCCC(=O)N[C@H](C(=O)N[C@@H](CCSC)C(=O)NCC(=O)N[C@@H](Cc1ccc(O)cc1)C(=O)N[C@@H](CCC(N)=O)C(=O)N[C@@H](CCCCN)C(=O)N[C@@H](CCCCN)C(=O)N[C@@H](CC(C)C)C(=O)N[C@@H](CCCNC(=N)N)C(=O)N[C@@H](CO)C(=O)N[C@@H](CCSC)C(=O)N[C@H](C(=O)N[C@@H](CC(=O)O)C(N)=O)[C@@H](C)O)C(C)C
B12: CXCR4 i1 loop compound 36 (peptide)
peptide: Palmitoyl-MGYQKKLRSMTDK-NH2
SMILES: CCCCCCCCCCCCCCCC(=O)N[C@@H](CCSC)C(=O)NCC(=O)N[C@@H](Cc1ccc(O)cc1)C(=O)N[C@@H](CCC(N)=O)C(=O)N[C@@H](CCCCN)C(=O)N[C@@H](CCCCN)C(=O)N[C@@H](CC(C)C)C(=O)N[C@@H](CCCNC(=N)N)C(=O)N[C@@H](CO)C(=O)N[C@@H](CCSC)C(=O)N[C@H](C(=O)N[C@@H](CC(=O)O)C(=O)N[C@@H](CCCCN)C(N)=O)[C@@H](C)O
B13: CXCR-4 receptor Compound No. 43 (peptide)
peptide: Palmitoyl-KKLRSMTDKYRLH-NH2
SMILES: CCCCCCCCCCCCCCCC(=O)N[C@@H](CCCCN)C(=O)N[C@@H](CCCCN)C(=O)N[C@@H](CC(C)C)C(=O)N[C@@H](CCCNC(=N)N)C(=O)N[C@@H](CO)C(=O)N[C@@H](CCSC)C(=O)N[C@H](C(=O)N[C@@H](CC(=O)O)C(=O)N[C@@H](CCCCN)C(=O)N[C@@H](Cc1ccc(O)cc1)C(=O)N[C@@H](CCCNC(=N)N)C(=O)N[C@@H](CC(C)C)C(=O)N[C@@H](Cc1c[nH]cn1)C(N)=O)[C@@H](C)O

Target: CXCR4 receptor (human, UniProt P61073 1-352)
Assay: cell-based or functional assay

Chain of CXCR4 receptor (P61073 whole entry): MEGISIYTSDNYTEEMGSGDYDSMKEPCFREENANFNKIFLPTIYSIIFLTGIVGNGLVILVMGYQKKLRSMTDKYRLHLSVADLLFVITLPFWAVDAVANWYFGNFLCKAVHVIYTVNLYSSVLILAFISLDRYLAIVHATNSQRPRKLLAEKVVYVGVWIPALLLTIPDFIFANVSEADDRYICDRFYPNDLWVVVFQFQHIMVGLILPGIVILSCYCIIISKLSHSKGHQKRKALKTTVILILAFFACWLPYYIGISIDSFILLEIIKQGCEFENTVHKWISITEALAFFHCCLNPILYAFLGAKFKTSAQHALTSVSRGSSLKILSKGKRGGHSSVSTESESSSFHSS

Row | Binder | AUC (% of), CHTX, CEM, 1.0 uM | Max (% of), CHTX, CEM, 1.0 uM | Peak Ratio, CHTX, CEM, 1.0 uM | AUC (% of), CHTX, SUP B-15, 1.0 uM | Max (% of), CHTX, SUP B-15, 1.0 uM | Peak Ratio, CHTX, SUP B-15, 1.0 uM | further results
1 | B1 | 100% | 93.1% | 1 | – | – | – | –
2 | B2 | – | – | 0.2 | – | – | – | –
3 | MGYQKKLRSMTD-NH2 (not fully specified (N-terminus); also: further groups not given here) [CXCR4 i1 loop compound 33] | – | – | 1 | – | – | – | –
4 | B3 | 37.5% | 59.7% | 0.04 | 47.4% | 37.6% | 0.2 | –
5 | B4 | – | – | 1 | – | – | – | –
6 | B5 | 50.9% | 62.7% | 0.2 | – | – | – | –
7 | B6 | – | – | – | 87.2% | 82.9% | 0.2 | –
8 | B7 | – | – | – | 25.9% | 31.5% | 0.2 | –
9 | B8 | 92.3% | 97.8% | 0.04 | 63.5% | 91.1% | 0.2 | –
10 | B9 | 69% | 84.5% | 1 | – | – | – | AUC (% of), CHTX, CEM, 1.0 um: 51.6%; Max (% of), CHTX, CEM, 1.0 um: 59.8%; Peak Ratio, CHTX, CEM, 1.0 um: 1
11 | B10 | – | – | – | 178% | 194% | 1 | –
12 | MGYQKKLRSMTDKYRI-NH2 (not fully specified (N-terminus); also: further groups not given here) [CXCR4 i1 loop compound 48] | 53% | 53.5% | 5 | – | – | – | –
13 | B11 | 57.9% | 57% | 1 | 31.7% | 49.3% | 0.2 | –
14 | B12 | 102% | 119% | 0.2 | – | – | – | Peak Ratio, CHTX, SUP B15, 1.0 uM: 0.2
15 | B13 | – | – | – | 70.8% | 55.8% | 0.04 | Peak Ratio, CHTX, CEM, 0.01 uM: 1; Peak Ratio, CHTX, CEM, 0.03 uM: 1; Peak Ratio, CHTX, CEM, 0.1 uM: 0.2; Peak Ratio, CHTX, CEM, 0.3 uM: 0.04; Peak Ratio, CHTX, CEM, 3.0 uM: 0.2
